From patent US20180051072A1 (RPEPTIDE, published 2018)

B1: monoclonal antibody 6C2 (antibody, V domains shown)
VH: EVQLQQSGPELVKPGASVKISCKASGYSFTGYFLSWVKQSHGRSLEWIGRINPYNGHTFYNQKFKDKATLTVDKSSTTAHMELLSLTSEDSAVYYCAGSDSWGQGTTLTVSS
VL: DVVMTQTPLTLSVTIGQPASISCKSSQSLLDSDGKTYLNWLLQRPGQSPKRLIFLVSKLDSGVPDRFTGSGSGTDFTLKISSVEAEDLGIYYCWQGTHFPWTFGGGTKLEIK
notes: Hybridoma monoclonal antibody; also called mAb 6C2; Beta Amyloid 6C2
B2: monoclonal antibody 7E7 (antibody, V domains shown)
VH: EVKLVESGGGLVQPGSSQRLSCATSGFTFTDYYMSWVRQPPGKALEWLGFIRNKTKRYTTEYSASVKGRFTISRDNSQSILYLQMNTLRAEDSATYYCARDDPYARFAYWGQGTLVTVSA
VL: DVVMTQTPLSLPVSLGDQASISCRSGQSLVHRNGNTYLHWYLQKPGQSPKLLIYKVSNRFSGVPDRFSGSGTGTDFTLKISRVEAEDLGVYFCSQSTHVPFTFGSGTKLEIK
notes: Hybridoma monoclonal antibody raised against 1-42 rubredoxin fusion, detected with goat anti-mouse IgG (H+L); also called mAb 7E7; Beta Amyloid 7E7

Experiments:
Aβ(1-40) [1] = target: T1, Aβ(1-40) (human); experiment: ELISA; reacts best with peptide that has not crossed through the isoelectric point
T1 construct: Peptide as coated on ELISA plates; its state of aggregation is not specified; also called Aβ-1-40 peptide; Beta-Amyloid 1-40

Aβ(1-42) = target: T2, Aβ(1-42) (human); experiment: ELISA, varying peptide amounts, 7E7 at 1:1,000 (FIG. 11)
T2 construct: its state of aggregation is not specified; also called Beta-Amyloid 1-42; Aβ42

[2] = target: T3, Beta-Amyloid 1-40 monomer (human); experiment: western blot, 7E7 as primary antibody (FIG. 20)
T3 construct: also called Beta-Amyloid Monomer; Aβ monomer (1-40)
Description: (§1) Western blots were performed to determine the extent of 7E7 binding to human Beta-Amyloid, specifically to determine if the antibody binds to Aβ aggregates, Aβ monomer, or both. This procedure applies to any Aβ peptide or peptide fragment which is composed of up to and including 40 or 42 amino acids. Before beginning the assay the vials of Aβ to be used were treated with 1,1,1,3,3,3-Hexafluoro-2-propanol (Aldrich Chemistry #105228-100G) (also known as HFIP) at a rate of 150 μL HFIP per 0.5 mg peptide). Once the HFIP was added to the lyophilized pellet the vials were sonicated for exactly one minute, or until the solution was clear. Once the dissolved peptide had taken on a clear appearance, the HFIP was gently evaporated out of each vial by passing Argon gas directly into the vial with the rubber stopper open just enough to allow the gasses and fumes to escape. When the inside of the vials was free of any remaining liquid, the remaining peptide is dissolved with 1% Ammonium Hydroxide at a rate which yields a peptide concentration of 1 mg/mL. 10 μL of this solution was mixed with 90μL of Milli-Q water, and from that 100 μL mixture 20 μL was added to 50 μL XT Sample Buffer (Bio-Rad #161-0791) and 130μL Milli-Q water for a final sample volume of 200 μL. No 2-Mercaptoethanol was added, and the samples were not heated. […] Instead the mixture was gently mixed by using a pipette. […]

[3] = target: T4, Beta-Amyloid 1-42 monomer (human); experiment: western blot, 7E7 as primary antibody (FIG. 20)
T4 construct: also called Beta-Amyloid Monomer; Aβ monomer (1-42)
Description: as §1

Aβ(1-40) [4] = target: T1, Aβ(1-40); experiment: ELISA, peptide coated on plate

T1 sequence (peptide, as listed by the source): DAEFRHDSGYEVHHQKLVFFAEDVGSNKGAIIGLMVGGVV
T4 sequence (peptide, as listed by the source): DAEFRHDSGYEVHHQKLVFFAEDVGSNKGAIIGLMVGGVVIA

Row | Binder | binding result (Aβ(1-40) [1]) | binding result (Aβ(1-42)) | binding result [2] | binding result [3] | binding result (Aβ(1-40) [4])
1 | B1 | binds |  |  |  | 
2 | B2 |  | binds | binds | binds | binds
